Results from paper PMC9482650, “Quantitative fragmentomics allow affinity mapping of interactomes” (Nature Communications, 2022).
Residue numbers refer to the chain shown, from its start.

T1: GRIP1_4, Q9Y3R0
T1 sequence (Q9Y3R0 467-571, limits assumed, looked up): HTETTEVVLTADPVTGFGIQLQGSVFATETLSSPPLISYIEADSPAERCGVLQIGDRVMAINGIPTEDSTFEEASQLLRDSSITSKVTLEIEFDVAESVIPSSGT

T2: PDZRN3_1, Q9UPQ7
T2 sequence (Q9UPQ7 244-349, limits assumed, looked up): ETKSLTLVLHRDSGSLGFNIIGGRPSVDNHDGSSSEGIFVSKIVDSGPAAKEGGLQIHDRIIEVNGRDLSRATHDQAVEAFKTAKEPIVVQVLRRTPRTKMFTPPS

T3: LIN7B, Q9HAP6
T3 sequence (Q9HAP6 88-185, limits assumed, looked up): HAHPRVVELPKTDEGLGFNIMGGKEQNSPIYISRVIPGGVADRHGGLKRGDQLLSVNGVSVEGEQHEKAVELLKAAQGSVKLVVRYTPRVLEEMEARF

T4: DFNB31_3, Q9P202
T4 sequence (Q9P202 811-907, limits assumed, looked up): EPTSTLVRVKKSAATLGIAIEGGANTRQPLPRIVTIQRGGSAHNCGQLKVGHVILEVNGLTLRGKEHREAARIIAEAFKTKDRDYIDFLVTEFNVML

T5: SNTA1, Q13424
T5 sequence (Q13424 82-180, limits assumed, looked up): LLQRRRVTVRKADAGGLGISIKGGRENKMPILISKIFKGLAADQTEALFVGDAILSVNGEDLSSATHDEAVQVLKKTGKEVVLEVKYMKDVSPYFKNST

T6: HTRA3, P83110
T6 sequence (P83110 354-453, limits assumed, looked up): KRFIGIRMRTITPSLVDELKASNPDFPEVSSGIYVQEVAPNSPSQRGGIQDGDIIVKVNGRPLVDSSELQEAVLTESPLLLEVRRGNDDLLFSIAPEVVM

T7: GRIP1_3, Q9Y3R0
T7 sequence (Q9Y3R0 247-346, limits assumed, looked up): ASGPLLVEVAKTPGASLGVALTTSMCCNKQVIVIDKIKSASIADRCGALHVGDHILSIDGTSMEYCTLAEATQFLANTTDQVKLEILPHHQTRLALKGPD

T8: MPP7, Q5T2T1
T8 sequence (Q5T2T1 134-230, limits assumed, looked up): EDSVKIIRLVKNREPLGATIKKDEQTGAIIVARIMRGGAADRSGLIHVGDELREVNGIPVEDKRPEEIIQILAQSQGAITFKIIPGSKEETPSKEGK

T9: DLG3_3, Q92796
T9 sequence (Q92796 374-475, limits assumed, looked up): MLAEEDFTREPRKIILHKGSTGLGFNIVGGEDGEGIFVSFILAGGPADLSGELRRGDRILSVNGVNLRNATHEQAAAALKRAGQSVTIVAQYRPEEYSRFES

T10: ARHGEF11, O15085
T10 sequence (O15085 42-136, limits assumed, looked up): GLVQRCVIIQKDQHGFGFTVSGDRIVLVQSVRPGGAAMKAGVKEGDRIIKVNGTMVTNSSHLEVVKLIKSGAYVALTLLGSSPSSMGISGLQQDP

T11: DFNB31_1, Q9P202
T11 sequence (Q9P202 135-233, limits assumed, looked up): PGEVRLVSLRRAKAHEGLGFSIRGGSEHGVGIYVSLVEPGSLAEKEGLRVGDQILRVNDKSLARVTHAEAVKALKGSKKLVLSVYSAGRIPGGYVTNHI

T12: LIN7C, Q9NUP9
T12 sequence (Q9NUP9 88-185, limits assumed, looked up): T3 sequence (Q9HAP6 88-185, limits assumed, looked up) with A2S, D13E, V35I, V40I, Q65H, S79K, R89K, A96S

T13: SIPA1L2, Q9P2F8
T13 sequence (Q9P2F8 945-1036, limits assumed, looked up): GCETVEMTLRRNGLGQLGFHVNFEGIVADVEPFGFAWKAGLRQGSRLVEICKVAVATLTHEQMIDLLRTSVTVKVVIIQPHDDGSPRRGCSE

B1: HNRNPK, P61978;P61978-2 (peptide)
chain: VKQYADVEGF
B2: PALLS, Q8WX93;Q8WX93-1 (peptide)
chain: NTALVESEDL

biological target: T1, GRIP1_4, Q9Y3R0; experiment: holdup assay; design: key: below the threshold = too weak to quantify, mostly under pKd 3.1 to 4; conditions: plain residues with an end cap or a label only (N-terminal biotin on a linker: ado-ado)

Row | pKd | Binder
1 | below the threshold | B1
2 | below the threshold | B2

biological target: GIPC2, Q8TF65; experiment: holdup assay; design: key: below the threshold = too weak to quantify, mostly under pKd 3.1 to 4; conditions: plain residues with an end cap or a label only (N-terminal biotin on a linker: ado-ado)
Sequence (Q8TF65 112-203): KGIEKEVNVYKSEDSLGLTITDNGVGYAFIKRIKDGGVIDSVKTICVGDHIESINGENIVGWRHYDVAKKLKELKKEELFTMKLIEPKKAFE

Row | pKd | Binder
3 | below the threshold | B1
4 | below the threshold | B2

biological target: T2, PDZRN3_1, Q9UPQ7; experiment: holdup assay; design: key: below the threshold = too weak to quantify, mostly under pKd 3.1 to 4; conditions: plain residues with an end cap or a label only (N-terminal biotin on a linker: ado-ado)

Row | pKd | Binder
5 | below the threshold | B1
6 | below the threshold | B2

biological target: T3, LIN7B, Q9HAP6; experiment: holdup assay; design: key: below the threshold = too weak to quantify, mostly under pKd 3.1 to 4; conditions: plain residues with an end cap or a label only (N-terminal biotin on a linker: ado-ado)

Row | pKd | Binder
7 | below the threshold | B2

biological target: NHERF4_2, Q86UT5; experiment: holdup assay; design: key: below the threshold = too weak to quantify, mostly under pKd 3.1 to 4; conditions: plain residues with an end cap or a label only (N-terminal biotin on a linker: ado-ado)
Sequence (Q86UT5 220-308): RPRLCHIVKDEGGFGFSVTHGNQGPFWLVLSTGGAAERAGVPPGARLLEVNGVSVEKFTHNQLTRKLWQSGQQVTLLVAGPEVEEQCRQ

Row | pKd | Binder
8 | below the threshold | B1

biological target: T4, DFNB31_3, Q9P202; experiment: holdup assay; design: key: below the threshold = too weak to quantify, mostly under pKd 3.1 to 4; conditions: plain residues with an end cap or a label only (N-terminal biotin on a linker: ado-ado)

Row | pKd | Binder
9 | 3.98 | B1
10 | below the threshold | B2

biological target: GORASP1, Q9BQQ3; experiment: holdup assay; design: key: below the threshold = too weak to quantify, mostly under pKd 3.1 to 4; conditions: plain residues with an end cap or a label only (N-terminal biotin on a linker: ado-ado)
Sequence (Q9BQQ3 1-208): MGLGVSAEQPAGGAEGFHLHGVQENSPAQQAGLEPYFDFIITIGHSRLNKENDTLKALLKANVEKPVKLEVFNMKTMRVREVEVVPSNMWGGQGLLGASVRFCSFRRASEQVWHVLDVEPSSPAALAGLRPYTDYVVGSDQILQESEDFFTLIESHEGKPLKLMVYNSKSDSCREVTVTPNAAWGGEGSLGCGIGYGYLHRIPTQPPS

Row | pKd | Binder
11 | below the threshold | B1
12 | below the threshold | B2

biological target: T5, SNTA1, Q13424; experiment: holdup assay; design: key: below the threshold = too weak to quantify, mostly under pKd 3.1 to 4; conditions: plain residues with an end cap or a label only (N-terminal biotin on a linker: ado-ado)

Row | pKd | Binder
13 | below the threshold | B1
14 | below the threshold | B2

biological target: GORASP2, Q9H8Y8; experiment: holdup assay; design: key: below the threshold = too weak to quantify, mostly under pKd 3.1 to 4; conditions: plain residues with an end cap or a label only (N-terminal biotin on a linker: ado-ado)

Row | pKd | Binder
15 | below the threshold | B1
16 | below the threshold | B2

biological target: T6, HTRA3, P83110; experiment: holdup assay; design: key: below the threshold = too weak to quantify, mostly under pKd 3.1 to 4; conditions: plain residues with an end cap or a label only (N-terminal biotin on a linker: ado-ado)

Row | pKd | Binder
17 | below the threshold | B1
18 | below the threshold | B2

biological target: CASK, O14936; experiment: holdup assay; design: key: below the threshold = too weak to quantify, mostly under pKd 3.1 to 4; conditions: plain residues with an end cap or a label only (N-terminal biotin on a linker: ado-ado)
Sequence (O14936 487-570): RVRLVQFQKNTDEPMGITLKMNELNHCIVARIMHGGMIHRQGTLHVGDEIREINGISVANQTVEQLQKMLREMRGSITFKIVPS

Row | pKd | Binder
19 | below the threshold | B1
20 | below the threshold | B2

biological target: T7, GRIP1_3, Q9Y3R0; experiment: holdup assay; design: key: below the threshold = too weak to quantify, mostly under pKd 3.1 to 4; conditions: plain residues with an end cap or a label only (N-terminal biotin on a linker: ado-ado)

Row | pKd | Binder
21 | below the threshold | B1
22 | below the threshold | B2

biological target: T8, MPP7, Q5T2T1; experiment: holdup assay; design: key: below the threshold = too weak to quantify, mostly under pKd 3.1 to 4; conditions: plain residues with an end cap or a label only (N-terminal biotin on a linker: ado-ado)

Row | pKd | Binder
23 | below the threshold | B1
24 | below the threshold | B2

biological target: T9, DLG3_3, Q92796; experiment: holdup assay; design: key: below the threshold = too weak to quantify, mostly under pKd 3.1 to 4; conditions: plain residues with an end cap or a label only (N-terminal biotin on a linker: ado-ado)

Row | pKd | Binder
25 | below the threshold | B1
26 | below the threshold | B2

biological target: T10, ARHGEF11, O15085; experiment: holdup assay; design: key: below the threshold = too weak to quantify, mostly under pKd 3.1 to 4; conditions: plain residues with an end cap or a label only (N-terminal biotin on a linker: ado-ado)

Row | pKd | Binder
27 | below the threshold | B1
28 | 4.05 | B2

biological target: T11, DFNB31_1, Q9P202; experiment: holdup assay; design: key: below the threshold = too weak to quantify, mostly under pKd 3.1 to 4; conditions: plain residues with an end cap or a label only (N-terminal biotin on a linker: ado-ado)

Row | pKd | Binder
29 | below the threshold | B1
30 | below the threshold | B2

biological target: Inadl_2, Q8NI35; experiment: holdup assay; design: key: below the threshold = too weak to quantify, mostly under pKd 3.1 to 4; conditions: plain residues with an end cap or a label only (N-terminal biotin on a linker: ado-ado)
Sequence (Q8NI35 238-335): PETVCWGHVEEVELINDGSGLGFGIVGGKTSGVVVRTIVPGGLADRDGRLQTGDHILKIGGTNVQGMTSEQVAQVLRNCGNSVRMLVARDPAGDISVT

Row | pKd | Binder
31 | below the threshold | B1
32 | below the threshold | B2

biological target: GRID2IP_1, A4D2P6; experiment: holdup assay; design: key: below the threshold = too weak to quantify, mostly under pKd 3.1 to 4; conditions: plain residues with an end cap or a label only (N-terminal biotin on a linker: ado-ado)
Sequence (A4D2P6 1-87): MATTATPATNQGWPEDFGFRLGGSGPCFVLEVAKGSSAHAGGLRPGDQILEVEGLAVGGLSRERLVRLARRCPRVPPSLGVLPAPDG

Row | pKd | Binder
33 | below the threshold | B1
34 | below the threshold | B2

biological target: MAGI2_4, Q86UL8; experiment: holdup assay; design: key: below the threshold = too weak to quantify, mostly under pKd 3.1 to 4; conditions: plain residues with an end cap or a label only (N-terminal biotin on a linker: ado-ado)
Sequence (Q86UL8 772-865): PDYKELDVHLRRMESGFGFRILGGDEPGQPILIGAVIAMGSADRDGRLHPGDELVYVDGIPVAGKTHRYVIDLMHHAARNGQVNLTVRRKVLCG

Row | pKd | Binder
35 | below the threshold | B1

biological target: T12, LIN7C, Q9NUP9; experiment: holdup assay; design: key: below the threshold = too weak to quantify, mostly under pKd 3.1 to 4; conditions: plain residues with an end cap or a label only (N-terminal biotin on a linker: ado-ado)

Row | pKd | Binder
36 | 4.03 | B1
37 | below the threshold | B2

biological target: FRMPD4, Q14CM0; experiment: holdup assay; design: key: below the threshold = too weak to quantify, mostly under pKd 3.1 to 4; conditions: plain residues with an end cap or a label only (N-terminal biotin on a linker: ado-ado)
Sequence (Q14CM0 67-160): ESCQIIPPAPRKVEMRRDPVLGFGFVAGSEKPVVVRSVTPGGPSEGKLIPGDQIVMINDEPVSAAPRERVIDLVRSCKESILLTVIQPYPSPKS

Row | pKd | Binder
38 | below the threshold | B1

biological target: GOPC, Q9HD26; experiment: holdup assay; design: key: below the threshold = too weak to quantify, mostly under pKd 3.1 to 4; conditions: plain residues with an end cap or a label only (N-terminal biotin on a linker: ado-ado)

Row | pKd | Binder
39 | below the threshold | B1
40 | below the threshold | B2

biological target: T13, SIPA1L2, Q9P2F8; experiment: holdup assay; design: key: below the threshold = too weak to quantify, mostly under pKd 3.1 to 4; conditions: plain residues with an end cap or a label only (N-terminal biotin on a linker: ado-ado)

Row | pKd | Binder
41 | below the threshold | B1
42 | below the threshold | B2

biological target: GRIP2_5, Q9C0E4; experiment: holdup assay; design: key: below the threshold = too weak to quantify, mostly under pKd 3.1 to 4; conditions: plain residues with an end cap or a label only (N-terminal biotin on a linker: ado-ado)
Sequence (Q9C0E4 544-642): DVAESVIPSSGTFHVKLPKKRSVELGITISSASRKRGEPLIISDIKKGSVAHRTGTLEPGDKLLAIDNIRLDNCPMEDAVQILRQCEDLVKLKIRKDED

Row | pKd | Binder
43 | below the threshold | B1
44 | below the threshold | B2

biological target: DLG4_2, P78352; experiment: holdup assay; design: key: below the threshold = too weak to quantify, mostly under pKd 3.1 to 4; conditions: plain residues with an end cap or a label only (N-terminal biotin on a linker: ado-ado)
Sequence (P78352 155-259): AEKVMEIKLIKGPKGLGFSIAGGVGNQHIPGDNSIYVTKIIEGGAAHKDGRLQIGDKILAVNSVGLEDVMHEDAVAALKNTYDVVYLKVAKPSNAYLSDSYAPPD

Row | pKd | Binder
45 | below the threshold | B1
46 | below the threshold | B2
